Test results as given in patent US20170342140A1.

Legend:
[1] = target: glycopeptide B (SEQ ID NO: 21), BSA-PEG4 conjugate; assay: antigen solid-phase ELISA, AAL lectin as positive control
[2] = target: non-fucosylated glycopeptide B (SEQ ID NO: 22), BSA-PEG4 conjugate; assay: antigen solid-phase ELISA, WGA lectin as positive control

| OD450 [1] [OD450] | OD450 [2] [OD450] | Substance |
| --- | --- | --- |
| 0.335 |  | AAL lectin (from UniProt P18891 2-313) |
|  | 3 | WGA lectin |
